This note sets out measurements from patent US20120021988A1, “METHODS FOR TREATING IMMUNE THROMBOCYTOPENIA” (priority 2007, published 2012).

The target of assay [1] is FcγIIIa (UniProt P08637). As to the kind of experiment: reverse ELISA, PAP on FcγIIIa-coated plate without competitor.
The target in assay [2] is FcγI (UniProt P12314). Nature of the assay: reverse ELISA (repeat), PAP on Fcγ1-coated plate without competitor.
Assay [3] has as its target FcγIIa (R131 allele) (UniProt P12318). Nature of the assay: reverse ELISA, PAP on FcγIIa (R131 allele)-coated plate without competitor. A general note: An ELISA detects its analyte on a solid surface through an enzyme-linked reagent.
Assay [4] concerns the target FcγIIb (UniProt P31994). As to the kind of experiment: reverse ELISA, PAP on FcγIIb-coated plate without competitor.
Assay [5] deals with FcγIIa (His 131 allele aka H161) (UniProt P12318). As to the kind of experiment: reverse ELISA (repeat), PAP on FcγIIa (H131 allele)-coated plate without competitor.
Assay [6] addresses FcγIIb (UniProt P31994). Nature of the assay: reverse ELISA (repeat), PAP on FcγIIb/c-coated plate without competitor.
Assay [7] concerns the target FCγIIIb (NA2) (UniProt O75015). Nature of the assay: reverse ELISA (repeat), PAP on FcγIIIb (NA2)-coated plate without competitor.
Assay [8] has as its target human C1q (Quidel Corp.) (human) (UniProt P02745). As to the kind of experiment: reverse ELISA, PAP on C1q-coated plate without competitor.
The target in assay [9] is PAP complex: preformed immune complex of peroxidase and rabbit anti-peroxidase IgG (horseradish) (UniProt P00433). Nature of the assay: reverse ELISA competition (repeat): PAP pre-incubated with peptide, then on plate coated with FcγIIIb (NA2); signal is PAP left bound to the receptor.
The target is the same in assay [10]. Nature of the assay: reverse ELISA competition (repeat): inhibition by the peptide of PAP binding to immobilised Fcγ1.
The target is the same in assay [11]. As to the kind of experiment: reverse ELISA competition (repeat): PAP pre-incubated with peptide, then on plate coated with FcγIIb/c; signal is PAP left bound to the receptor.
For assay [12] the target is unchanged. Nature of the assay: reverse ELISA competition: PAP pre-incubated with peptide, then on C1q-coated plate; signal is PAP left bound to immobilised human C1q (lower = more inhibition).
Assay [13] shares this target. As to the kind of experiment: reverse ELISA competition: PAP pre-incubated with peptide, then on plate coated with FcγIIa (R131 allele); signal is PAP left bound to the receptor.
Assay [14] shares this target. Nature of the assay: reverse ELISA competition (repeat): PAP pre-incubated with peptide, then on plate coated with FcγIIa (H131 allele); signal is PAP left bound to the receptor.
Assay [15] shares this target. As to the kind of experiment: reverse ELISA competition (repeat): inhibition by the peptide of PAP binding to immobilised FcγIIIb (NA2).
Assay [16] shares this target. Nature of the assay: reverse ELISA competition (repeat): inhibition by the peptide of PAP binding to immobilised FcγIIb/c.
Assay [17] shares this target. As to the kind of experiment: reverse ELISA competition: PAP pre-incubated with peptide, then on plate coated with FcγIIIa; signal is PAP left bound to the receptor.
Assay [18] shares this target. Nature of the assay: reverse ELISA competition: PAP pre-incubated with peptide, then on plate coated with FcγIIb; signal is PAP left bound to the receptor.
For assay [19] the target is unchanged. As to the kind of experiment: reverse ELISA competition (repeat): PAP pre-incubated with peptide, then on plate coated with Fcγ1; signal is PAP left bound to the receptor.
For assay [20] the target is unchanged. Nature of the assay: reverse ELISA competition (repeat): inhibition by the peptide of PAP binding to immobilised FcγIIa (H131 allele).

UniProt P31994, sequence (P31994 46-217 limits assumed): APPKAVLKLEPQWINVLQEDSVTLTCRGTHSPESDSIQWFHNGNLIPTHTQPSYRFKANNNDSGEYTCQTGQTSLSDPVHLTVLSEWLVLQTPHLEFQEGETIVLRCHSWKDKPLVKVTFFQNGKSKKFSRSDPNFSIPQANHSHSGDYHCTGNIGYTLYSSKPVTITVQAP
UniProt P12314, sequence (P12314 16-288 limits assumed): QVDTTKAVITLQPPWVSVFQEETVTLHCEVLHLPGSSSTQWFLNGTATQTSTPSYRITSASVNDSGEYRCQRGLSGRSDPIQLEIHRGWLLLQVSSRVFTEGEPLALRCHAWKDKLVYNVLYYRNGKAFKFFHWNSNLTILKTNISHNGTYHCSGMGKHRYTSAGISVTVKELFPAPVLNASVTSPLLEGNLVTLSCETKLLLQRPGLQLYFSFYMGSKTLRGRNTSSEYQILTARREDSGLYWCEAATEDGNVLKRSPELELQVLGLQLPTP
UniProt O75015, sequence (O75015 17-200 N65S limits assumed): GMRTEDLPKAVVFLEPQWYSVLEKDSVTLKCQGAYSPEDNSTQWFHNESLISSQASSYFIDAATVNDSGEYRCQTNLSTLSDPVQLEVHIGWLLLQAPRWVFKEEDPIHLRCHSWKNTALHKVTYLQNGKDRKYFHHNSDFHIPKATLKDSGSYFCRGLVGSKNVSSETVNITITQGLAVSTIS
UniProt P02745, sequence (P02745 23-245 limits assumed, chain 1 of 3): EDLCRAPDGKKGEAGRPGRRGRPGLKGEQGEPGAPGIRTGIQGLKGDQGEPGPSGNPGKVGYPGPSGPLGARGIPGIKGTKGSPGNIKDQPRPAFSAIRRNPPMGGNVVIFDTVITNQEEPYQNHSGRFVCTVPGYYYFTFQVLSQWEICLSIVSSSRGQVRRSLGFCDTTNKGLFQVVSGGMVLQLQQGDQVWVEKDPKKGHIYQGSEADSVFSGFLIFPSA
UniProt P02745, sequence (P02746 28-253 limits assumed, chain 2 of 3, further chain): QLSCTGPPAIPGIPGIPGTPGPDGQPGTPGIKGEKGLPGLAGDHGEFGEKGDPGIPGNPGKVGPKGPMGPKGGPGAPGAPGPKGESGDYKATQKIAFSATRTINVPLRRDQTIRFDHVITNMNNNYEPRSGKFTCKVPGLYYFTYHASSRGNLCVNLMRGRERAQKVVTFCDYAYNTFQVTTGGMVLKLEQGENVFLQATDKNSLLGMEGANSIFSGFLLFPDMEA
UniProt P02745, sequence (P02747 29-245 limits assumed, chain 3 of 3, further chain): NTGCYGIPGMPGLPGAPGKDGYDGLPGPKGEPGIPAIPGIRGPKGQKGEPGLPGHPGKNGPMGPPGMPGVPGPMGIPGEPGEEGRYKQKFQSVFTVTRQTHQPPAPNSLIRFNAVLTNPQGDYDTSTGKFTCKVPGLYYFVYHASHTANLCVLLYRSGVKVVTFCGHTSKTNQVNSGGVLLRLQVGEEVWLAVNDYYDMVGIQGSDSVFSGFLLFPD
UniProt P08637, sequence (P08637 17-208 limits assumed): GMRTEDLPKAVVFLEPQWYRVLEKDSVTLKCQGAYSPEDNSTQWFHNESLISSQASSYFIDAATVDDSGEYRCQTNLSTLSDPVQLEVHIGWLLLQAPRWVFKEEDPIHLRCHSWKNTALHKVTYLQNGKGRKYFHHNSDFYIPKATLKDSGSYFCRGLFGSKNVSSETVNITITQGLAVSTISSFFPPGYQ

“PAP complex: preformed immune complex of peroxidase and rabbit anti-peroxidase IgG (from UniProt P00433 31-338)”: the OD405 in [1] was determined as 1.59 OD405; in assay [3] it was 1.6 OD405; in [4], 1.39 OD405. Further, the OD 405 nm came to 2.33 OD 405 nm in assay [2]; 3.51 OD 405 nm in assay [5]; 2.22 OD 405 nm in assay [6]; 3.06 OD 405 nm in [7]; 2.35 OD 405 nm in [8].

Take APPDCAWHLGELVWCT [Peptide … (SEQ ID NO:20)]: the OD 405 nm is 0.266 OD 405 nm in assay [9]; 0.266 OD 405 nm in [11]; 0.389 OD 405 nm in [12]; 0.209 OD 405 nm in assay [14]; 0.264 OD 405 nm in [19]. Besides, the % inhibition of IC binding in assay [10] is 89%; in assay [15], 91%; in assay [16], 88%; in assay [20], 94%. In addition, the OD405 turned out to be 0.509 OD405 in assay [13], 0.67 OD405 in assay [17] and 0.496 OD405 in assay [18].
